PMC8225817, “The mineralocorticoid receptor leads to increased expression of EGFR and T-type calcium channels that support HL-1 cell hypertrophy”

How the values were obtained:
[1] = molecular target: T1, rhSP1 (specificity protein 1) (human, UniProt P08047 1-785); assay: EMSA; 10 mM Tris, 50 mM KCl, 5 mM MgCl2, 1 mM DTT, 5% glycerol, 1 mg/ml poly(dI-dC), 5 fmol probe, 30 min room temperature; pH not stated; settings: protein: commercial; label: biotin
[2] = molecular target: T1, rhSP1 (specificity protein 1); assay: EMSA; same as -216G/-191C; 10 mM Tris, 50 mM KCl, 5 mM MgCl2, 1 mM DTT, 5% glycerol, 1 mg/ml poly(dI-dC), 5 fmol probe, 30 min room temperature; pH not stated; settings: protein: commercial; label: biotin

T1 sequence (P08047 whole entry): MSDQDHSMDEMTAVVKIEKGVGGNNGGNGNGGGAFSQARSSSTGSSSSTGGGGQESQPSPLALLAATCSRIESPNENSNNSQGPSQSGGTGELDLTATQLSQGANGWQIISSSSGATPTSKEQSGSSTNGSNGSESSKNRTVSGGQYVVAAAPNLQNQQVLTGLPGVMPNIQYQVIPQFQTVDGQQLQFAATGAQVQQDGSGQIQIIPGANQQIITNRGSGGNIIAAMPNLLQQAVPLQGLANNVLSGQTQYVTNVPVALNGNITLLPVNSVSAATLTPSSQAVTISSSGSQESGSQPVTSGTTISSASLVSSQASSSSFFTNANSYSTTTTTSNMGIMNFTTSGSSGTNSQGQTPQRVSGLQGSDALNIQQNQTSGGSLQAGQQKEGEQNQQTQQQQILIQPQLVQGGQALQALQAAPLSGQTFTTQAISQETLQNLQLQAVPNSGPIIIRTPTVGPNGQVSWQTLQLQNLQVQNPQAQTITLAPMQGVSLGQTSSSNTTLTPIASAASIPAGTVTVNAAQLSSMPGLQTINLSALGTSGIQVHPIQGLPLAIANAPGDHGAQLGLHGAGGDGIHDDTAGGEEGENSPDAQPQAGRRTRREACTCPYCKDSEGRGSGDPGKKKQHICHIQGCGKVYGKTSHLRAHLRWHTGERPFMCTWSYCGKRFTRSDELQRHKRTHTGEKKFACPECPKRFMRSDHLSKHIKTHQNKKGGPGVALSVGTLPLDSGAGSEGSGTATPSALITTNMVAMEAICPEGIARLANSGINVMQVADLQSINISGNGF

Binder	binding result [1]	binding result [2]
mMRE (-216G/-191C) (dsDNA) DNA 1: GCAGCAGCCTCCGCCCCCCGCACGGTGTGAGCGCCCGCCGCGGCCGAGGCGGCCGGAGTCCCGAG DNA 2: CTCGGGACTCCGGCCGCCTCGGCCGCGGCGGGCGCTCACACCGTGCGGGGGGCGGAGGCTGCTGC	binds	–
mMRE (-216G/-191A) (dsDNA) DNA 1: GCAGCAGCCTCCGCCCCCCGCACGGTGTGAGCGCCCGACGCGGCCGAGGCGGCCGGAGTCCCGAG DNA 2: CTCGGGACTCCGGCCGCCTCGGCCGCGTCGGGCGCTCACACCGTGCGGGGGGCGGAGGCTGCTGC	–	binds
